# Assay results from PMC2997501, “Different Residues on the Surface of the Methanothermobacter thermautotrophicus MCM Helicase Interact with Single- and Double-Stranded DNA” (Archaea, 2010).
# Substitutions are numbered along the chain they refer to. In names and notes the source's numbering stands.
# B1: Methanothermobacter thermautotrophicus MCM protein, V214A mutant (enzyme, UniProt O27798 1-666, looked up)
# chain: MMKTVDKSKTLTKFEEFFSLQDYKDRVFEAIEKYPNVRSIEVDYLDLEMFDPDLADLLIEKPDDVIRAAQQAIRNIDRLRKNVDLNIRFSGISNVIPLRELRSKFIGKFVAVDGIVRKTDEIRPRIVKAVFECRGCMRHHAVTQSTNMITEPSLCSECGGRSFRLLQDESEFLDTQTLKLQEPLENLSGGEQPRQITVVLEDDLVDTLTPGDIARVTGTLRTVRDERTKRFKNFIYGNYTEFLEQEFEELQISEEDEEKIKELAGDPNIYEKIIRSTAPSIHGYREVKEAIALQLFGGTGKELDDKTRLRGDIHILIVGDPGIGKSQMLKYVSKLAPRGIYTSGKGTSGVGLTAAAVRDEFGGWSLEAGALVLGDKGNVCVDELDKMREEDRSAIHEALEQQTISIAKAGIMATLNSRCSVLAAANPKFGRFDSYKSIAEQIDLPSTILSRFDLIFVVEDKPDEEKDRELARHILKTHKEDHMPFEIDPELLRKYIAYARKNVRPVLTDEAMQVLEDFYVSMRASAADEDSPVPITARQLEALVRLSEASAKIKLKEHVEAEDARKAIKLSQACLKQVGYDPETGKIDIDKVEGRTPKSERDKFRLLLELIKEYEDDYGGRAPTNILITEMMDRYNVSEEKVEELIRILKDKGAIFEPARGYLKIV
# notes: MCM helicase of Methanothermobacter thermautotrophicus, derivative of the full-length enzyme; source: E. coli DE3 codon plus cells, purified on a Ni-column
# B2: Methanothermobacter thermautotrophicus MCM protein, G218A mutant (enzyme, UniProt O27798 1-666, looked up)
# chain: B1 chain with A214V, G218A
# notes: as for B1
# B3: 49-mer dsDNA (dsDNA)
# DNA 1: GCAGATAACAGTTGTCCTGGAGAACGACCTGGTTGACACCCTCACACCC
# DNA 2: GGGTGTGAGGGTGTCAACCAGGTCGTTCTCCAGGACAACTGTTATCTGC
# Legend:
# [1] = molecular target: the molecule itself; test: SEC; 100 micrograms of protein on a superose-6 column (HR10/30); 20 mM Tris-HCl pH 7.5, 150 mM NaCl, 10% glycerol; 22°C, 0.2 ml/min; A280; size markers thyroglobulin, ferritin, albumin, ovalbumin
# MCM Q176A = molecular target: T1, MCM Q176A (Methanothermobacter thermautotrophicus, UniProt O27798 1-666, Q176A); test: filter binding; 10 mM Mg2+, no ATP; 25 mM Hepes-NaOH pH 7.5, 2 mM DTT, 10 mM MgCl2, 100 ug/ml BSA, 50 fmol 32P-DNA in 20 ul, 10/30/90 nM MCM monomer (25 nM for the ATP test), 60 C, 10 min; nitrocellulose filter washed with 20 mM Tris-HCl pH 7.5; conditions: protein: recombinant; tags: C-terminal His6; chain copies: 6; label: 32P (T4 PNK, 5' end); blunt
# T1 sequence: B1 chain with Q176A, A214V
# MCM P210G [2] = molecular target: T2, MCM P210G (Methanothermobacter thermautotrophicus, UniProt O27798 1-666, P210G); test: as above; conditions: protein: recombinant; tags: C-terminal His6; chain copies: 6; label: 32P (T4 PNK, 5' end); blunt
# T2 sequence: B1 chain with P210G, A214V
# MCM G218A = molecular target: T3, MCM G218A (Methanothermobacter thermautotrophicus, UniProt O27798 1-666, G218A); test: as above; conditions: protein: recombinant; tags: C-terminal His6; chain copies: 6; label: 32P (T4 PNK, 5' end); blunt
# T3 sequence: B1 chain with A214V, G218A
# MCM G211A [3] = molecular target: T4, MCM G211A (Methanothermobacter thermautotrophicus, UniProt O27798 1-666, G211A); test: as above; conditions: protein: recombinant; tags: C-terminal His6; chain copies: 6; label: 32P (T4 PNK, 5' end); blunt
# T4 sequence: B1 chain with G211A, A214V
# MCM PG210,211GA = molecular target: T5, MCM PG210,211GA (Methanothermobacter thermautotrophicus, UniProt O27798 1-666, P210G;G211A); test: filter binding; 10 mM Mg2+, no ATP; better than wild-type; 25 mM Hepes-NaOH pH 7.5, 2 mM DTT, 10 mM MgCl2, 100 ug/ml BSA, 50 fmol 32P-DNA in 20 ul, 10/30/90 nM MCM monomer (25 nM for the ATP test), 60 C, 10 min; nitrocellulose filter washed with 20 mM Tris-HCl pH 7.5; conditions: protein: recombinant; tags: C-terminal His6; chain copies: 6; label: 32P (T4 PNK, 5' end)
# T5 sequence: B1 chain with P210G, G211A, A214V
# MCM P210G [4] = molecular target: T2, MCM P210G; test: as above; conditions: protein: recombinant; tags: C-terminal His6; chain copies: 6; label: 32P (T4 PNK, 5' end)
# MCM G211A [5] = molecular target: T4, MCM G211A; test: as above; conditions: protein: recombinant; tags: C-terminal His6; chain copies: 6; label: 32P (T4 PNK, 5' end)
binder,measurement,setting,value
B1,binding result,[1],binds
B2,binding result,[1],binds
B3,binding signal,MCM Q176A,~50 % reduction vs wild-type
same,binding signal,MCM P210G [2],~50 % reduction vs wild-type
same,binding signal,MCM G218A,~25 % reduction vs wild-type
same,binding signal,MCM G211A [3],~50 % reduction vs wild-type
GCAGATAACAGTTGTCCTGGAGAACGACCTGGTTGACACCCTCACACCC (ssDNA) [49-mer ssDNA],binding result,"MCM PG210,211GA",binds
same,binding result,MCM P210G [4],binds
same,binding result,MCM G211A [5],binds
